Patent US20210206877A1

Target: BACE1 endogenous to primary cortical neurons from E16.5 CD1 mice (mouse) (UniProt P56818)
Test: cell-based or functional assay

BACE1 endogenous to primary cortical neurons from E16.5 CD1 mice (mouse), sequence (P56818 46-501): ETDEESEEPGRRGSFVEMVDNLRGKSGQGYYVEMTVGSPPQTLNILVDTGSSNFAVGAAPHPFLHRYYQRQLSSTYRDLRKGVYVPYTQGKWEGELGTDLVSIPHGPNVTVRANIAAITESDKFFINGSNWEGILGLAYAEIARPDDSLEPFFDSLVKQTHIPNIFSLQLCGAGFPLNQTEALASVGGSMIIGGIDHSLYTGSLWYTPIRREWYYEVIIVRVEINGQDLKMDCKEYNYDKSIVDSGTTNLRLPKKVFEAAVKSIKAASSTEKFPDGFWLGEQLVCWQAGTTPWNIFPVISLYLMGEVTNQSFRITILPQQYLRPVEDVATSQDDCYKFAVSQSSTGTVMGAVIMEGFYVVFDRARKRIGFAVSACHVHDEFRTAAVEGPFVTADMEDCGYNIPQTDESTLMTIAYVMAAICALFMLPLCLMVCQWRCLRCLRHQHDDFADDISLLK

antibody YW412.8.31
IC50, inhibition of Aβx-40 production in primary mouse cortical neuron cultures (sandwich ELISA of supernatants): 2.9 nM
maximum inhibition of Aβx-40 production in primary mouse cortical neuron cultures: 62%
